From paper PMC10053435

Assays:
[1] = molecular target: naïve EcHsp60 R264AK266A (Epinephelus coioides (grouper)); assay: SEC; WT and mutated naïve EcHsp60 purified at 4°C; analytical Superdex 200 Increase 10/300 GL
[2] = molecular target: naïve EcHsp60 R264AK266A (Epinephelus coioides (grouper)); assay: negative-stain TEM with single particle analysis; purified oligomeric EcHSP60 at 1 mg/ml, 2% uranyl acetate, 2D classification
[3] = molecular target: naïve EcHsp60 K266A (Epinephelus coioides (grouper)); assay: SEC; WT and mutated naïve EcHsp60 purified at 4°C; analytical Superdex 200 Increase 10/300 GL
[4] = molecular target: mature Epinephelus coioides mtHsp60 (EcHsp60), without the mitochondrial importing signal (Epinephelus coioides (grouper)); assay: cross-linking; dimeric EcHsp60 at 0.6 mg/ml, BS^3 0.15 to 0.6 mM, 37°C 30 min, phosphate buffer pH 7.6 with 300 mM NaCl, SDS-PAGE
[5] = molecular target: mature Epinephelus coioides mtHsp60 (EcHsp60), without the mitochondrial importing signal (Epinephelus coioides (grouper)); assay: negative-stain TEM with single particle analysis; purified oligomeric EcHSP60 at 1 mg/ml, 2% uranyl acetate, 2D classification
[6] = molecular target: mature Epinephelus coioides mtHsp60 (EcHsp60), without the mitochondrial importing signal (Epinephelus coioides (grouper)); assay: SEC; protein homogenised and purified at room temperature (RT, 25°C); Superdex S200pg 16/600, 25 mM Tris-HCl pH 7.6, 150 mM NaCl, 1 ml/min
[7] = molecular target: mature Epinephelus coioides mtHsp60 (EcHsp60), without the mitochondrial importing signal (Epinephelus coioides (grouper)); assay: SEC; protein homogenised and purified at 4°C (LT); Superdex S200pg 16/600, 25 mM Tris-HCl pH 7.6, 150 mM NaCl, 1 ml/min

“naïve EcHsp60 R264AK266A (natural protein)” was tested, and the stoichiometry N [1] was 7 and the stoichiometry N [2] was 7.
Work on naïve EcHsp60 K266A (natural protein) yielded a stoichiometry N [3] of 7.
For “mature Epinephelus coioides mtHsp60 (EcHsp60), without the mitochondrial importing signal (natural protein)”, the stoichiometry N [4] was 2, the stoichiometry N [5] was 7 and the stoichiometry N [6] was 7. For the same substance, the stoichiometry N [7] was 2.
